Data reported in publication PMC9482650, “Quantitative fragmentomics allow affinity mapping of interactomes” (Nature Communications, 2022).

T1: NHERF3_1, Q5T2W1
T1 sequence (Q5T2W1 4-100, limits assumed, looked up): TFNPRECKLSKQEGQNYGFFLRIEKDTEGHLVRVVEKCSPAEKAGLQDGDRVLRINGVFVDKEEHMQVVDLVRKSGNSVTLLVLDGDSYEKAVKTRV

T2: APBA2_2, Q99767
T2 sequence (Q99767 654-744, limits assumed, looked up): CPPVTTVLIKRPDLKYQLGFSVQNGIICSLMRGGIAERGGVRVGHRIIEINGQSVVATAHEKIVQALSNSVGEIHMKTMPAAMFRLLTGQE

T3: MPP2, Q14168
T3 sequence (Q14168 180-250, limits assumed, looked up): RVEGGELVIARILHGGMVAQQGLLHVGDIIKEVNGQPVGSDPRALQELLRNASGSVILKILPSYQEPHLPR

T4: ARHGAP21, Q5T5U3
T4 sequence (Q5T5U3 45-169, limits assumed, looked up): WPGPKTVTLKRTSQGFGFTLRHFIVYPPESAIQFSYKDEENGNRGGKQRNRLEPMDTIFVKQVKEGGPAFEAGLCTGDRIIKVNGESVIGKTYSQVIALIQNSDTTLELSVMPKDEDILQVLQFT

T5: RHPN1, Q8TCX5
T5 sequence (Q8TCX5 508-602, limits assumed, looked up): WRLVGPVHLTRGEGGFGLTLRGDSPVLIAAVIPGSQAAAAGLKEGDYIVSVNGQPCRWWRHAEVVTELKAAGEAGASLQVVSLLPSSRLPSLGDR

T6: LIN7B, Q9HAP6
T6 sequence (Q9HAP6 88-185, limits assumed, looked up): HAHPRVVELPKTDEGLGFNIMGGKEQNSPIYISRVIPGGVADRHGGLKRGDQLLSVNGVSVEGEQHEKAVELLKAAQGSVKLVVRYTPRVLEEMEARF

T7: RADIL, Q96JH8
T7 sequence (Q96JH8 971-1071, limits assumed, looked up): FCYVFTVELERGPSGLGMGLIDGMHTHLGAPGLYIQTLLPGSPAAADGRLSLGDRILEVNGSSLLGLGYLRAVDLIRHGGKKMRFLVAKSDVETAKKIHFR

T8: NHERF3_3, Q5T2W1
T8 sequence (Q5T2W1 238-333, limits assumed, looked up): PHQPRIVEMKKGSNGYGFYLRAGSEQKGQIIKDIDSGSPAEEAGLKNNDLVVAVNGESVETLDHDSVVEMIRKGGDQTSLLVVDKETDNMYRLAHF

T9: DFNB31_3, Q9P202
T9 sequence (Q9P202 811-907, limits assumed, looked up): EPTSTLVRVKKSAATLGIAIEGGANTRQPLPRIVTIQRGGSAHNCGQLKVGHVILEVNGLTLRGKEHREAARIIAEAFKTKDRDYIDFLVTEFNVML

T10: TIAM2, Q8IVF5
T10 sequence (Q8IVF5 885-986, limits assumed, looked up): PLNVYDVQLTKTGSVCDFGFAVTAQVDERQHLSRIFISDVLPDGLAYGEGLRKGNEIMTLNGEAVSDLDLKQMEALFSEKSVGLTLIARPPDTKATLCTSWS


Molecular target: DLG5_1, Q8TDM6
Sequence (Q8TDM6 617-713): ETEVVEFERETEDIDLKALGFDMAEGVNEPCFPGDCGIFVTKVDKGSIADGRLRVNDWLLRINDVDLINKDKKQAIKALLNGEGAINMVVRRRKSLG
Assay: holdup assay
Parameters: key: below the threshold = too weak to quantify, mostly under pKd 3.1 to 4
Conditions: plain residues with an end cap or a label only (N-terminal biotin on a linker: ttds)

Binder | pKd
RHTTSTETAV [HPV30-E6, P36809] | below the threshold

Molecular target: T1, NHERF3_1, Q5T2W1
Assay: holdup assay
Parameters: key: below the threshold = too weak to quantify, mostly under pKd 3.1 to 4
Conditions: plain residues with an end cap or a label only (N-terminal biotin on a linker: ttds)

Binder | pKd
RHTTSTETAV [HPV30-E6, P36809] | 4.87

Molecular target: T2, APBA2_2, Q99767
Assay: holdup assay
Parameters: key: below the threshold = too weak to quantify, mostly under pKd 3.1 to 4
Conditions: plain residues with an end cap or a label only (N-terminal biotin on a linker: ttds)

Binder | pKd
RHTTSTETAV [HPV30-E6, P36809] | below the threshold

Molecular target: T3, MPP2, Q14168
Assay: holdup assay
Parameters: key: below the threshold = too weak to quantify, mostly under pKd 3.1 to 4
Conditions: plain residues with an end cap or a label only (N-terminal biotin on a linker: ttds)

Binder | pKd
RHTTSTETAV [HPV30-E6, P36809] | below the threshold

Molecular target: Inadl_2, Q8NI35
Sequence (Q8NI35 238-335): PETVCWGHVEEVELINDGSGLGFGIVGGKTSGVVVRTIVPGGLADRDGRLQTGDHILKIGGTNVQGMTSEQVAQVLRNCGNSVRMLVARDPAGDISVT
Assay: holdup assay
Parameters: key: below the threshold = too weak to quantify, mostly under pKd 3.1 to 4
Conditions: plain residues with an end cap or a label only (N-terminal biotin on a linker: ttds)

Binder | pKd
RHTTSTETAV [HPV30-E6, P36809] | below the threshold

Molecular target: GRASP, Q7Z6J2
Sequence (Q7Z6J2 96-193): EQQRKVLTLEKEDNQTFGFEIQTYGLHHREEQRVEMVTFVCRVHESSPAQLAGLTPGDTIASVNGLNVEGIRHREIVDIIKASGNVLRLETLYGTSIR
Assay: holdup assay
Parameters: key: below the threshold = too weak to quantify, mostly under pKd 3.1 to 4
Conditions: plain residues with an end cap or a label only (N-terminal biotin on a linker: ttds)

Binder | pKd
RHTTSTETAV [HPV30-E6, P36809] | 3.96

Molecular target: T4, ARHGAP21, Q5T5U3
Assay: holdup assay
Parameters: key: below the threshold = too weak to quantify, mostly under pKd 3.1 to 4
Conditions: plain residues with an end cap or a label only (N-terminal biotin on a linker: ttds)

Binder | pKd
RHTTSTETAV [HPV30-E6, P36809] | below the threshold

Molecular target: DLG2_2, Q15700
Sequence (Q15700 189-283): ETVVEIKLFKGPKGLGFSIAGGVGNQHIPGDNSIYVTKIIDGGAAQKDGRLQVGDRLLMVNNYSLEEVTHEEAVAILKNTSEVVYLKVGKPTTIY
Assay: holdup assay
Parameters: key: below the threshold = too weak to quantify, mostly under pKd 3.1 to 4
Conditions: plain residues with an end cap or a label only (N-terminal biotin on a linker: ttds)

Binder | pKd
RHTTSTETAV [HPV30-E6, P36809] | 5.19

Molecular target: T5, RHPN1, Q8TCX5
Assay: holdup assay
Parameters: key: below the threshold = too weak to quantify, mostly under pKd 3.1 to 4
Conditions: plain residues with an end cap or a label only (N-terminal biotin on a linker: ttds)

Binder | pKd
RHTTSTETAV [HPV30-E6, P36809] | 4.08

Molecular target: LDB3, O75112
Sequence (O75112 1-94): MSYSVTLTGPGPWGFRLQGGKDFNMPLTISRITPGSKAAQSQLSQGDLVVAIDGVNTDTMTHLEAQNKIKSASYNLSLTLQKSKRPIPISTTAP
Assay: holdup assay
Parameters: key: below the threshold = too weak to quantify, mostly under pKd 3.1 to 4
Conditions: plain residues with an end cap or a label only (N-terminal biotin on a linker: ttds)

Binder | pKd
RHTTSTETAV [HPV30-E6, P36809] | below the threshold

Molecular target: GIPC2, Q8TF65
Sequence (Q8TF65 112-203): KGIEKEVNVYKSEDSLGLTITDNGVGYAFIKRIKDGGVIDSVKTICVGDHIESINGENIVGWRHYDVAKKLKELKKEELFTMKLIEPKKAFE
Assay: holdup assay
Parameters: key: below the threshold = too weak to quantify, mostly under pKd 3.1 to 4
Conditions: plain residues with an end cap or a label only (N-terminal biotin on a linker: ttds)

Binder | pKd
RHTTSTETAV [HPV30-E6, P36809] | 3.96

Molecular target: DLG1_2, Q12959
Assay: holdup assay
Parameters: key: below the threshold = too weak to quantify, mostly under pKd 3.1 to 4
Conditions: plain residues with an end cap or a label only (N-terminal biotin on a linker: ttds)

Binder | pKd
RHTTSTETAV [HPV30-E6, P36809] | 5.63

Molecular target: ARHGEF12, Q9NZN5-2
Sequence (Q9NZN5 other isoform, or with tags, fused parts or gaps): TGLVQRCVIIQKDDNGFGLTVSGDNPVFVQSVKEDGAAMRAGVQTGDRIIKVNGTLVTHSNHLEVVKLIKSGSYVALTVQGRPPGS
Assay: holdup assay
Parameters: key: below the threshold = too weak to quantify, mostly under pKd 3.1 to 4
Conditions: plain residues with an end cap or a label only (N-terminal biotin on a linker: ttds)

Binder | pKd
RHTTSTETAV [HPV30-E6, P36809] | 4.2

Molecular target: Inadl_6, Q8NI35
Sequence (Q8NI35 1058-1167): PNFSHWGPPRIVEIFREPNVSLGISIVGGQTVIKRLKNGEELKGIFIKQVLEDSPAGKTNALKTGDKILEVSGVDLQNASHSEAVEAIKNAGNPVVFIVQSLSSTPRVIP
Assay: holdup assay
Parameters: key: below the threshold = too weak to quantify, mostly under pKd 3.1 to 4
Conditions: plain residues with an end cap or a label only (N-terminal biotin on a linker: ttds)

Binder | pKd
RHTTSTETAV [HPV30-E6, P36809] | below the threshold

Molecular target: T6, LIN7B, Q9HAP6
Assay: holdup assay
Parameters: key: below the threshold = too weak to quantify, mostly under pKd 3.1 to 4
Conditions: plain residues with an end cap or a label only (N-terminal biotin on a linker: ttds)

Binder | pKd
RHTTSTETAV [HPV30-E6, P36809] | 3.71

Molecular target: NHERF4_1, Q86UT5-2
Sequence (Q86UT5 other isoform, or with tags, fused parts or gaps): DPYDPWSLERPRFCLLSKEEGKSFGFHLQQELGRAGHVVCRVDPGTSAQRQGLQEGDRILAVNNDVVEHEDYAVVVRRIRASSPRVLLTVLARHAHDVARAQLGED
Assay: holdup assay
Parameters: key: below the threshold = too weak to quantify, mostly under pKd 3.1 to 4
Conditions: plain residues with an end cap or a label only (N-terminal biotin on a linker: ttds)

Binder | pKd
RHTTSTETAV [HPV30-E6, P36809] | below the threshold

Molecular target: T7, RADIL, Q96JH8
Assay: holdup assay
Parameters: key: below the threshold = too weak to quantify, mostly under pKd 3.1 to 4
Conditions: plain residues with an end cap or a label only (N-terminal biotin on a linker: ttds)

Binder | pKd
RHTTSTETAV [HPV30-E6, P36809] | below the threshold

Molecular target: GRID2IP_1, A4D2P6
Sequence (A4D2P6 1-87): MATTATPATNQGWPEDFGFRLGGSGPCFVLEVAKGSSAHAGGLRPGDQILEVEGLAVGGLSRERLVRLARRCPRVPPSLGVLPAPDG
Assay: holdup assay
Parameters: key: below the threshold = too weak to quantify, mostly under pKd 3.1 to 4
Conditions: plain residues with an end cap or a label only (N-terminal biotin on a linker: ttds)

Binder | pKd
RHTTSTETAV [HPV30-E6, P36809] | below the threshold

Molecular target: Inadl_10, Q8NI35
Sequence (Q8NI35 1673-1763): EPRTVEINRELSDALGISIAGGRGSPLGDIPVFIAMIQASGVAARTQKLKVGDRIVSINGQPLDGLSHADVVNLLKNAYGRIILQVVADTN
Assay: holdup assay
Parameters: key: below the threshold = too weak to quantify, mostly under pKd 3.1 to 4
Conditions: plain residues with an end cap or a label only (N-terminal biotin on a linker: ttds)

Binder | pKd
RHTTSTETAV [HPV30-E6, P36809] | below the threshold

Molecular target: PDZRN4_1, Q6ZMN7
Sequence (Q6ZMN7 213-318): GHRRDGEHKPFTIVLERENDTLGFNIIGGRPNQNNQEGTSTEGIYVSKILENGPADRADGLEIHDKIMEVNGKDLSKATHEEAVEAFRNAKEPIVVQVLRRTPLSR
Assay: holdup assay
Parameters: key: below the threshold = too weak to quantify, mostly under pKd 3.1 to 4
Conditions: plain residues with an end cap or a label only (N-terminal biotin on a linker: ttds)

Binder | pKd
RHTTSTETAV [HPV30-E6, P36809] | 4.53

Molecular target: MAGI2_2, Q86UL8
Sequence (Q86UL8 410-522): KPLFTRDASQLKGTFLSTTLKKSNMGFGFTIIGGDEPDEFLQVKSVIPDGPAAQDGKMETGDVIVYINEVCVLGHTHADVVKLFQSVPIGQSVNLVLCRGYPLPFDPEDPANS
Assay: holdup assay
Parameters: key: below the threshold = too weak to quantify, mostly under pKd 3.1 to 4
Conditions: plain residues with an end cap or a label only (N-terminal biotin on a linker: ttds)

Binder | pKd
RHTTSTETAV [HPV30-E6, P36809] | 5.04

Molecular target: Inadl_8, Q8NI35
Sequence (Q8NI35 1425-1530): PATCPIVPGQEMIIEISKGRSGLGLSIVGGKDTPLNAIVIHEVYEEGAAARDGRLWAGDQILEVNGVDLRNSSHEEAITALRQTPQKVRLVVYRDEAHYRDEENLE
Assay: holdup assay
Parameters: key: below the threshold = too weak to quantify, mostly under pKd 3.1 to 4
Conditions: plain residues with an end cap or a label only (N-terminal biotin on a linker: ttds)

Binder | pKd
RHTTSTETAV [HPV30-E6, P36809] | 3.94

Molecular target: DLG1_1, Q12959
Assay: holdup assay
Parameters: key: below the threshold = too weak to quantify, mostly under pKd 3.1 to 4
Conditions: plain residues with an end cap or a label only (N-terminal biotin on a linker: ttds)

Binder | pKd
RHTTSTETAV [HPV30-E6, P36809] | 4.93

Molecular target: PDLIM1, O00151
Sequence (O00151 1-87): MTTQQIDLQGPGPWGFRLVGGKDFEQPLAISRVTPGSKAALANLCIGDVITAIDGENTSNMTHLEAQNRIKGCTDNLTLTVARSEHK
Assay: holdup assay
Parameters: key: below the threshold = too weak to quantify, mostly under pKd 3.1 to 4
Conditions: plain residues with an end cap or a label only (N-terminal biotin on a linker: ttds)

Binder | pKd
RHTTSTETAV [HPV30-E6, P36809] | below the threshold

Molecular target: T8, NHERF3_3, Q5T2W1
Assay: holdup assay
Parameters: key: below the threshold = too weak to quantify, mostly under pKd 3.1 to 4
Conditions: plain residues with an end cap or a label only (N-terminal biotin on a linker: ttds)

Binder | pKd
RHTTSTETAV [HPV30-E6, P36809] | below the threshold

Molecular target: T9, DFNB31_3, Q9P202
Assay: holdup assay
Parameters: key: below the threshold = too weak to quantify, mostly under pKd 3.1 to 4
Conditions: plain residues with an end cap or a label only (N-terminal biotin on a linker: ttds)

Binder | pKd
RHTTSTETAV [HPV30-E6, P36809] | below the threshold

Molecular target: T10, TIAM2, Q8IVF5
Assay: holdup assay
Parameters: key: below the threshold = too weak to quantify, mostly under pKd 3.1 to 4
Conditions: plain residues with an end cap or a label only (N-terminal biotin on a linker: ttds)

Binder | pKd
RHTTSTETAV [HPV30-E6, P36809] | below the threshold
